Molecular target: T1, recombinant hexahistidine-tagged ScSec4 (S. cerevisiae, UniProt P07560 1-215)
T1 sequence: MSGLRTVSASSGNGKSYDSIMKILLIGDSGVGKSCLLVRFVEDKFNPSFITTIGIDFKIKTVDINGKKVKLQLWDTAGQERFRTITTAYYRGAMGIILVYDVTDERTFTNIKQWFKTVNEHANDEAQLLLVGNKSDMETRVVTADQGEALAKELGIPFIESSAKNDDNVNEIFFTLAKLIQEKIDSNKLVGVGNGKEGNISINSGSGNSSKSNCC
Experiment: […]) in EDTA binding buffer

B1: GST-ScSec2^1-160 (domain or fragment)
chain: MDASEEAKRVSIQVTSLSTQLIESVDKQSHLEEQLNKSLKTIASQKAAIENYNQLKEDYNTLKRELSDRDDEVKRLREDIAKENELRTKAEEEADKLNKEVEDLTASLFDEANNMVADARKEKYAIEILNKRLTEQLREKDTLLDTLTLQLKNLKKVMHS
binding result: binds

Reference: article PMC2847530 (Molecular Biology of the Cell, 2010)
